Substrate in this series: NCC(=O)CCC(=O)O
As to the kind of experiment: PbgS activity assay in lysate of overexpressing cells, Michaelis-Menten. In kind it is biochemical, Acinetobacter baumannii. To be noted: native wt lysate included as control to subtract basal activity.

B1: PbgS(wt) (Acinetobacter baumannii ATCC 19606 = CIP 70.34 = JCM 6841) (protein)
chain: MGLQYSSRLTVMEYPPTYPSVIPNIEIVMTYTFNRPAFPATRMRRIRKNDQLRAMVSETQLTTNHLIYPVFVLPGQNQTQDIPSMPNIQRLSADLLLKKAERLLELGVSKLALFPVTPQEDKSLTAEAAWREDGLVQTTCRLLKKELPEMVLITDGALDPYTTHGQDGIIDETGYVLNDETVECLIKQALSHAEAGAEVIAPSDMMDGRIGAIRQALEANGHIYTNIMAYSAKYASSFYGPFRDAVGSASNLKGGNKYNYQMDFANRAEALHEIALDIQEGADMVIVKPGMPYLDVVREVKDTFGIPTFIYQVSGEYAMLAGAIQNGWLSDSVILESLMCCRRAGADGIWTYFAETAAEKLKEMN
For orientation: Km means the concentration of substrate that gives half-maximal velocity. In the case of B1, the Km stood at 153 µM.
